Experimental data published in patent US20130209454A1.

Assays:
Test in all cases: cell-based or functional assay
[1] = molecular target: Env of HIV-1 strain 3103.v3.c10 (HIV-1)
[2] = molecular target: HIV-1 Env of strain WEAU_d15_410_787 (HIV-1)
[3] = molecular target: HIV-1 Env of strain 6952.v1.c20 (HIV-1)
[4] = molecular target: HIV-1 Env of strain CNE19 (HIV-1)
[5] = molecular target: HIV-1 Env of strain C2101.c01 (HIV-1)
[6] = molecular target: HIV-1 Env of strain CNE17 (HIV-1)
[7] = molecular target: Env of HIV-1 strain 928-28 (HIV-1)
[8] = molecular target: HIV-1 Env of strain CNE5 (HIV-1)
[9] = molecular target: Env of HIV-1 strain Q461.e2 (HIV-1)
[10] = molecular target: HIV-1 Env of strain Ce0393_C3 (HIV-1)
[11] = molecular target: Env of HIV-1 strain Q769.d22 (HIV-1)
[12] = molecular target: HIV-1 Env of strain 246F C1G (HIV-1)
[13] = molecular target: HIV-1 Env of strain ZM135M.PL10a (HIV-1)
[14] = molecular target: HIV-1 Env of strain X2131_C1_B5 (HIV-1)
[15] = molecular target: Env of HIV-1 strain 263-8 (HIV-1)
[16] = molecular target: HIV-1 Env of strain CAP45.2.00.G3 (HIV-1)
[17] = molecular target: Env of HIV-1 strain 89-F1_2_25 (HIV-1)
[18] = molecular target: Env of HIV-1 strain BJOX009000.02.4 (HIV-1)
[19] = molecular target: Env of HIV-1 strain Du172.17 (HIV-1)
[20] = molecular target: Env of HIV-1 strain 231965.c01 (HIV-1)
[21] = molecular target: HIV-1 Env of strain 3365.v2.c2 (HIV-1)
[22] = molecular target: Env of HIV-1 strain Ce0393_C3 (HIV-1)
[23] = molecular target: Env of HIV-1 strain 235-47 (HIV-1)
[24] = molecular target: Env of HIV-1 strain WEAU_d15_410_787 (HIV-1)
[25] = molecular target: HIV-1 Env of strain MS208.A1 (HIV-1)
[26] = molecular target: HIV-1 Env of strain SC422661.8 (HIV-1)
[27] = molecular target: HIV-1 Env of strain PVO.4 (HIV-1)
[28] = molecular target: Env of HIV-1 strain 6244_13_B5_4576 (HIV-1)
[29] = molecular target: Env of HIV-1 strain Du156.12 (HIV-1)
[30] = molecular target: HIV-1 Env of strain CNE21 (HIV-1)
[31] = molecular target: Env of HIV-1 strain TRJO4551.58 (HIV-1)
[32] = molecular target: HIV-1 Env of strain HIV-16055-2.3 (HIV-1)
[33] = molecular target: HIV-1 Env of strain RHPA4259.7 (HIV-1)
[34] = molecular target: Env of HIV-1 strain MS208.A1 (HIV-1)
[35] = molecular target: Env of HIV-1 strain Ce0682_E4 (HIV-1)
[36] = molecular target: HIV-1 Env of strain 62357_14_D3_4589 (HIV-1)
[37] = molecular target: Env of HIV-1 strain 3016.v5.c45 (HIV-1)
[38] = molecular target: Env of HIV-1 strain 6540.v4.c1 (HIV-1)
[39] = molecular target: HIV-1 Env of strain Du156.12 (HIV-1)
[40] = molecular target: Env of HIV-1 strain 191084 B7-19 (HIV-1)
[41] = molecular target: Env of HIV-1 strain BJOX010000.06.2 (HIV-1)
[42] = molecular target: Env of HIV-1 strain R2184.c04 (HIV-1)
[43] = molecular target: Env of HIV-1 strain Ce704809221_1B3 (HIV-1)
[44] = molecular target: HIV-1 Env of strain 1006_11_C3_1601 (HIV-1)
[45] = molecular target: HIV-1 Env of strain 9004SS_A3_4 (HIV-1)
[46] = molecular target: HIV-1 Env of strain A07412M1.vrc12 (HIV-1)
[47] = molecular target: Env of HIV-1 strain BJOX015000.11.5 (HIV-1)
[48] = molecular target: HIV-1 Env of strain 3301.v1.c24 (HIV-1)
[49] = molecular target: HIV-1 Env of strain 6240_08_TA5_4622 (HIV-1)
[50] = molecular target: HIV-1 Env of strain TRJO4551.58 (HIV-1)
[51] = molecular target: HIV-1 Env of strain R1166.c01 (HIV-1)

Chain of NIH45-46 (antibody) (VH): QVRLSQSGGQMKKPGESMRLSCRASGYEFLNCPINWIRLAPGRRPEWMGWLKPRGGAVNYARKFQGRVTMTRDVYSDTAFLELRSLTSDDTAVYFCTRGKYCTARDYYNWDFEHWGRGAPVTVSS
Chain of NIH45-46 (antibody) (V domain): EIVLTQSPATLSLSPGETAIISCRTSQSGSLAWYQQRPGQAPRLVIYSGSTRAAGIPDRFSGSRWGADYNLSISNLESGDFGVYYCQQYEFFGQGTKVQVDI

Q: Which IC80 [1] does the source give for NIH45-46 (antibody) here?
A: Its IC80 is 6.15 µg/mL.

Q: What about the IC50, pseudovirus neutralization [2] of the same substance?
A: Its IC50, pseudovirus neutralization is 0.005 µg/mL.

Q: And the IC50, pseudovirus neutralization [3]?
A: The IC50, pseudovirus neutralization was 0.02 µg/mL.

Q: What about the IC50, pseudovirus neutralization [4] of the same substance?
A: Its IC50, pseudovirus neutralization is 0.07 µg/mL.

Q: What about the IC50, pseudovirus neutralization [5] of the same substance?
A: The IC50, pseudovirus neutralization was 4.24 µg/mL.

Q: What about the IC50, pseudovirus neutralization [6] of the same substance?
A: Its IC50, pseudovirus neutralization is 0.261 µg/mL.

Q: And the IC80 [7]?
A: The IC80 was 0.64 µg/mL.

Q: And the IC50, pseudovirus neutralization [8]?
A: The IC50, pseudovirus neutralization was 0.09 µg/mL.

Q: What about the IC80 [9] of the same substance?
A: The IC80 was 0.291 µg/mL.

Q: And the IC50, pseudovirus neutralization [10]?
A: The IC50, pseudovirus neutralization was 0.334 µg/mL.

Q: And the IC80 [11]?
A: Its IC80 is 0.033 µg/mL.

Q: And the IC50, pseudovirus neutralization [12]?
A: Its IC50, pseudovirus neutralization is over 50 µg/mL.

Q: What about the IC50, pseudovirus neutralization [13] of the same substance?
A: Its IC50, pseudovirus neutralization is 0.59 µg/mL.

Q: And the IC50, pseudovirus neutralization [14]?
A: Its IC50, pseudovirus neutralization is 0.23 µg/mL.

Q: And the IC80 [15]?
A: Its IC80 is 0.1 µg/mL.

Q: What about the IC50, pseudovirus neutralization [16] of the same substance?
A: Its IC50, pseudovirus neutralization is over 50 µg/mL.

Q: And the IC80 [17]?
A: Its IC80 is over 50 µg/mL.

Q: And the IC80 [18]?
A: The IC80 was 1.16 µg/mL.

Q: What about the IC80 [19] of the same substance?
A: Its IC80 is over 50 µg/mL.

Q: What about the IC80 [20] of the same substance?
A: The IC80 was 0.126 µg/mL.

Q: And the IC50, pseudovirus neutralization [21]?
A: Its IC50, pseudovirus neutralization is 0.029 µg/mL.

Q: And the IC80 [22]?
A: Its IC80 is 0.936 µg/mL.

Q: And the IC80 [23]?
A: Its IC80 is 1.49 µg/mL.

Q: What about the IC80 [24] of the same substance?
A: Its IC80 is 0.015 µg/mL.

Q: And the IC50, pseudovirus neutralization [25]?
A: Its IC50, pseudovirus neutralization is 0.09 µg/mL.

Q: And the IC50, pseudovirus neutralization [26]?
A: The IC50, pseudovirus neutralization was 0.06 µg/mL.

Q: What about the IC50, pseudovirus neutralization [27] of the same substance?
A: Its IC50, pseudovirus neutralization is 0.12 µg/mL.

Q: And the IC80 [28]?
A: Its IC80 is 0.26 µg/mL.

Q: What about the IC80 [29] of the same substance?
A: The IC80 was 0.054 µg/mL.

Q: And the IC50, pseudovirus neutralization [30]?
A: The IC50, pseudovirus neutralization was 6.01 µg/mL.

Q: And the IC80 [31]?
A: Its IC80 is 0.13 µg/mL.

Q: What about the IC50, pseudovirus neutralization [32] of the same substance?
A: The IC50, pseudovirus neutralization was 0.02 µg/mL.

Q: And the IC50, pseudovirus neutralization [33]?
A: Its IC50, pseudovirus neutralization is 0.017 µg/mL.

Q: What about the IC80 [34] of the same substance?
A: The IC80 was 0.6 µg/mL.

Q: What about the IC80 [35] of the same substance?
A: The IC80 was 0.155 µg/mL.

Q: And the IC50, pseudovirus neutralization [36]?
A: Its IC50, pseudovirus neutralization is 0.06 µg/mL.

Q: And the IC80 [37]?
A: Its IC80 is over 50 µg/mL.

Q: And the IC80 [38]?
A: Its IC80 is over 50 µg/mL.

Q: And the IC50, pseudovirus neutralization [39]?
A: Its IC50, pseudovirus neutralization is 0.02 µg/mL.

Q: And the IC80 [40]?
A: Its IC80 is 0.07 µg/mL.

Q: What about the IC80 [41] of the same substance?
A: The IC80 was 6.37 µg/mL.

Q: What about the IC80 [42] of the same substance?
A: Its IC80 is 0.127 µg/mL.

Q: And the IC80 [43]?
A: Its IC80 is 0.88 µg/mL.

Q: What about the IC50, pseudovirus neutralization [44] of the same substance?
A: Its IC50, pseudovirus neutralization is 0.027 µg/mL.

Q: And the IC50, pseudovirus neutralization [45]?
A: The IC50, pseudovirus neutralization was 0.18 µg/mL.

Q: What about the IC50, pseudovirus neutralization [46] of the same substance?
A: The IC50, pseudovirus neutralization was 0.03 µg/mL.

Q: What about the IC80 [47] of the same substance?
A: The IC80 was 0.38 µg/mL.

Q: What about the IC50, pseudovirus neutralization [48] of the same substance?
A: The IC50, pseudovirus neutralization was 0.009 µg/mL.

Q: And the IC50, pseudovirus neutralization [49]?
A: Its IC50, pseudovirus neutralization is 0.44 µg/mL.

Q: What about the IC50, pseudovirus neutralization [50] of the same substance?
A: The IC50, pseudovirus neutralization was 0.04 µg/mL.

Q: What about the IC50, pseudovirus neutralization [51] of the same substance?
A: Its IC50, pseudovirus neutralization is 0.31 µg/mL.
